Data on one substance can be found in paper PMC8451032.

In general, stoichiometry N refers to a count of units in the complex or per binding partner.

The experiment concerns the target m971 scFv with short (GGGGS) linker. Put plainly: SEC. On the technique in general: SEC sorts molecules by how far they enter the pores of the column.

As to m971 scFv with short (GGGGS) linker, the stoichiometry N is 2.
